Test results from patent publication CN114456267A.

Molecular target: T1, 重组人CD73蛋白 (human) (UniProt P21589)
T1 sequence (looked up): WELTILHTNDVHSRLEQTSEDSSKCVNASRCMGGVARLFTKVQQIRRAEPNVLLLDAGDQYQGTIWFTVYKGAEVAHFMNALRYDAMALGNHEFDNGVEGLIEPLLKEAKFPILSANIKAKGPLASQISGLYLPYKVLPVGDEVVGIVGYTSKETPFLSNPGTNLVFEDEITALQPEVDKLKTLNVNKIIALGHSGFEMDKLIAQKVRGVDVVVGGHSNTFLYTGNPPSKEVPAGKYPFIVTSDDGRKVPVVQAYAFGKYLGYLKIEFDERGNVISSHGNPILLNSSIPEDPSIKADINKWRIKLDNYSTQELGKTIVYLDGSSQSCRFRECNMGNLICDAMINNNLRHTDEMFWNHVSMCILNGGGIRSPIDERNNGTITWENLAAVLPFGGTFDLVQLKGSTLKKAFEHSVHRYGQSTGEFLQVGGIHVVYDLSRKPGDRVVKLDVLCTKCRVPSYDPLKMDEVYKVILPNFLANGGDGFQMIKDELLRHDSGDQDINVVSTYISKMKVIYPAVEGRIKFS
Test: ELISA, plate coated with 1 μg/mL recombinant human CD73, anti-human IgG-HRP detection

- 亲和力 (affinity): 8.3e-13 mol/L
B1: 抗CD73人源化单克隆抗体5A4 (antibody, part only; not given: Light chain variable region, part only)
VH: SICFEGKPDMNQRDKEDHMRVFMNSWDDWYDVKLWHCIDFERAHRPQHYPIMAQVQLVQSGAEVKKPGASVKVSCKASGYSFTDYNMYWVRQAPGQGLEWMGYIDPYNGDASYAQKFQGRVTMTRDTSTSTVYMELSSLRSEDTAVYYCAKTDYWGQGTTLTVSSCLAKLPCGSHTWVWWQEMIQNAPWCVQPTHDHWAPAGWNHGCCILAHAENIQGAQWFAY
